According to IntAct's records for PubMed 31515488:

B1: Keratin, type I cuticular Ha8 (Homo sapiens), O76015 (parent)
chain: MTSSYSSSSCPLGCTMAPGARNVSVSPIDIGCQPGAEANIAPMCLLANVAHANRVRVGSTPLGRPSLCLPPTCHTACPLPGTCHIPGNIGICGAYGENTLNGHEKETMQFLNDRLANYLEKVRQLEQENAELEATLLERSKCHESTVCPDYQSYFHTIEELQQKILCSKAENARLIVQIDNAKLAADDFRIKLESERSLRQLVEADKCGTQKLLDDATLAKADLEAQQESLKEEQLSLKSNHEQEVKILRSQLGEKLRIELDIEPTIDLNRVLGEMRAQYEAMLETNRQDVEQWFQAQSEGISLQDMSCSEELQCCQSEILELRCTVNALEVERQAQHTLKDCLQNSLCEAEDRFGTELAQMQSLISNVEEQLSEIRADLERQNQEYQVLLDVKTRLENEIATYRNLLESEDCKLPCNPCSTSPSCVTAPCAPRPSCGPCTTCGPTCGASTTGSRF
partner: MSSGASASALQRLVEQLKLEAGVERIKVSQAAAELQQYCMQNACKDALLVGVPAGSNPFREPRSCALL
B2: Four and a half LIM domains protein 2 (Homo sapiens), Q14192 (parent)
chain: MTERFDCHHCNESLFGKKYILREESPYCVVCFETLFANTCEECGKPIGCDCKDLSYKDRHWHEACFHCSQCRNSLVDKPFAAKEDQLLCTDCYSNEYSSKCQECKKTIMPGTRKMEYKGSSWHETCFICHRCQQPIGTKSFIPKDNQNFCVPCYEKQHAMQCVQCKKPITTGGVTYREQPWHKECFVCTACRKQLSGQRFTARDDFAYCLNCFCDLYAKKCAGCTNPISGLGGTKYISFEERQWHNDCFNCKKCSLSLVGRGFLTERDDILCPDCGKDI
partner: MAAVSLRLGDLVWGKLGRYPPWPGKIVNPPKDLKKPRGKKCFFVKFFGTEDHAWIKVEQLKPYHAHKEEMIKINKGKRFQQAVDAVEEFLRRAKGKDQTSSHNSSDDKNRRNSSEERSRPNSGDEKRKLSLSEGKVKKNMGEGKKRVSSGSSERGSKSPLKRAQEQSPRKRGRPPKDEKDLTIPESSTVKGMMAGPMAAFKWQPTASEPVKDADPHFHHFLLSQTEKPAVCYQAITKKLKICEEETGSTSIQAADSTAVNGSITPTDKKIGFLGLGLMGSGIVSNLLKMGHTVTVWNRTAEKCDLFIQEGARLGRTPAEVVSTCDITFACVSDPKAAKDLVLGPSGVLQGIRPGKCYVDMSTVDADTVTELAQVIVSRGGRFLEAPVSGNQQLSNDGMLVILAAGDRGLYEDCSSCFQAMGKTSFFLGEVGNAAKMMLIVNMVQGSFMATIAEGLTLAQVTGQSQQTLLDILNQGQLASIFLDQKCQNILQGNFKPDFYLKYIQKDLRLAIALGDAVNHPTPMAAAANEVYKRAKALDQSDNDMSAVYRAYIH
B3: Myogenin (Homo sapiens), P15173 (parent)
chain: MELYETSPYFYQEPRFYDGENYLPVHLQGFEPPGYERTELTLSPEAPGPLEDKGLGTPEHCPGQCLPWACKVCKRKSVSVDRRRAATLREKRRLKKVNEAFEALKRSTLLNPNQRLPKVEILRSAIQYIERLQALLSSLNQEERDLRYRGGGGPQPGVPSECSSHSASCSPEWGSALEFSANPGDHLLTADPTDAHNLHSLTSIVDSITVEDVSVAFPDETMPN
partner: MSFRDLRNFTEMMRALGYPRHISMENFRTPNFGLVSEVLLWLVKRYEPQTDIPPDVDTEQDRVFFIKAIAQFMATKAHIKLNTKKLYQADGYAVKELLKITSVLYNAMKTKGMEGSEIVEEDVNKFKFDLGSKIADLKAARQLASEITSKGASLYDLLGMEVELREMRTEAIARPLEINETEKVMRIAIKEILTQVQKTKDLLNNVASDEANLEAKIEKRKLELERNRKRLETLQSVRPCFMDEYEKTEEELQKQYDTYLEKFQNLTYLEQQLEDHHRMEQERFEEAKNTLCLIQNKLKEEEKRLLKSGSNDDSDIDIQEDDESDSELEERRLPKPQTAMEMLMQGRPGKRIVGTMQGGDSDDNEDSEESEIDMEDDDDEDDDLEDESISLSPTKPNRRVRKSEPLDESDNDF
B4: Multifunctional procollagen lysine hydroxylase and glycosyltransferase LH3 (Homo sapiens), O60568 (parent)
chain: MTSSGPGPRFLLLLPLLLPPAASASDRPRGRDPVNPEKLLVITVATAETEGYLRFLRSAEFFNYTVRTLGLGEEWRGGDVARTVGGGQKVRWLKKEMEKYADREDMIIMFVDSYDVILAGSPTELLKKFVQSGSRLLFSAESFCWPEWGLAEQYPEVGTGKRFLNSGGFIGFATTIHQIVRQWKYKDDDDDQLFYTRLYLDPGLREKLSLNLDHKSRIFQNLNGALDEVVLKFDRNRVRIRNVAYDTLPIVVHGNGPTKLQLNYLGNYVPNGWTPEGGCGFCNQDRRTLPGGQPPPRVFLAVFVEQPTPFLPRFLQRLLLLDYPPDRVTLFLHNNEVFHEPHIADSWPQLQDHFSAVKLVGPEEALSPGEARDMAMDLCRQDPECEFYFSLDADAVLTNLQTLRILIEENRKVIAPMLSRHGKLWSNFWGALSPDEYYARSEDYVELVQRKRVGVWNVPYISQAYVIRGDTLRMELPQRDVFSGSDTDPDMAFCKSFRDKGIFLHLSNQHEFGRLLATSRYDTEHLHPDLWQIFDNPVDWKEQYIHENYSRALEGEGIVEQPCPDVYWFPLLSEQMCDELVAEMEHYGQWSGGRHEDSRLAGGYENVPTVDIHMKQVGYEDQWLQLLRTYVGPMTESLFPGYHTKARAVMNFVVRYRPDEQPSLRPHHDSSTFTLNVALNHKGLDYEGGGCRFLRYDCVISSPRKGWALLHPGRLTHYHEGLPTTWGTRYIMVSFVDP
partner: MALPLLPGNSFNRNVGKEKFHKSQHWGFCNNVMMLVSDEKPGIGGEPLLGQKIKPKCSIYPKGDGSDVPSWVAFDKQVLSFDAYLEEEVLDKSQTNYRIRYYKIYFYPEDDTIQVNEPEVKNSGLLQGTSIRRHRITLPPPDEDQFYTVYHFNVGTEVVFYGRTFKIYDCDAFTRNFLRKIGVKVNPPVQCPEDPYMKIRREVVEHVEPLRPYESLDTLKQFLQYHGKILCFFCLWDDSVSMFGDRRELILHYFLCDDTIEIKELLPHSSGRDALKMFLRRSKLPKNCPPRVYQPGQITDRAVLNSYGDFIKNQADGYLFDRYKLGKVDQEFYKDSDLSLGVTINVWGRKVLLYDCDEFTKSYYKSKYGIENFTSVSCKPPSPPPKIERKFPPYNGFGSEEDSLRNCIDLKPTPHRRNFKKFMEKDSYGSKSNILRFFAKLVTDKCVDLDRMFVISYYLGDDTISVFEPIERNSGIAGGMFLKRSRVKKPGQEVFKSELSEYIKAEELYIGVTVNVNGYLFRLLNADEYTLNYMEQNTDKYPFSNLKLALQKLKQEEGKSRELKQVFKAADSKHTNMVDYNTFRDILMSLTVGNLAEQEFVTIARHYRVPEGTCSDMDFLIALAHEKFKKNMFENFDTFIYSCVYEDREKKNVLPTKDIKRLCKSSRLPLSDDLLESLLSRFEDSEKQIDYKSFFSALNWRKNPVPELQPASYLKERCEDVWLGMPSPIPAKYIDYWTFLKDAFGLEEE

Variants of: B1
Settings: with gbg10_human GNG10, P50151

| effect of a mutation on the interaction | Variant |
| --- | --- |
| with no effect | A205S |

Variants of: B2
Settings: with glyr1_human GLYR1, Q49A26

| effect of a mutation on the interaction | Variant |
| --- | --- |
| with no effect | A37S |
| with no effect | N95K |

Variants of: B3
Settings: with clua1_human CLUAP1, Q96AJ1

| effect of a mutation on the interaction | Variant |
| --- | --- |
| with no effect | P49H |
| with no effect | R147C |

Variants of: B4
Settings: with efhc2_human EFHC2, Q5JST6

| effect of a mutation on the interaction | Variant |
| --- | --- |
| disrupting interaction strength | A492V |
